Patent publication US20140227292A1 (PROTHENA BIOSCIENCES, published 2014)

T1: human MCAM (melanoma cell adhesion molecule), expressed on transfected CHO cells (human, UniProt P43121 24-646)
T1 construct: also called hMCAM; CD146
T1 chain: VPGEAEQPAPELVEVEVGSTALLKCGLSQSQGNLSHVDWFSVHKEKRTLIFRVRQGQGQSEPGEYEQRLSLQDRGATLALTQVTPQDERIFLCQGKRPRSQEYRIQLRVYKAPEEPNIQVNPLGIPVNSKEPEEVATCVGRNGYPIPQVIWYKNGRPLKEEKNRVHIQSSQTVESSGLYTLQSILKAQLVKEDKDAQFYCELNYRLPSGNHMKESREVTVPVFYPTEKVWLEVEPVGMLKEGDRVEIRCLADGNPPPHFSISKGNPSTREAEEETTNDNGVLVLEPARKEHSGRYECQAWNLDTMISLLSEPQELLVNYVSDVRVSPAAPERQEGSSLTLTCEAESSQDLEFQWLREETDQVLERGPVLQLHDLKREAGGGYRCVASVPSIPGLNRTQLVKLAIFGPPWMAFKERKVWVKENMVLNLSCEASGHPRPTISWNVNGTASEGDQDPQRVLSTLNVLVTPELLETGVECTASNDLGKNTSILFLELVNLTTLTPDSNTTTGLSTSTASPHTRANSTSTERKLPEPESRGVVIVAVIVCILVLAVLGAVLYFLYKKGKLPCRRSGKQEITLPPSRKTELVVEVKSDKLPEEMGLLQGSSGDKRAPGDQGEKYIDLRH


What was measured:
[1] = molecular target: T1, human MCAM (melanoma cell adhesion …); assay: blocking assay of the re-expressed antibodies (Table 7 'Blocking IC50'; laminin/FACS assay of paragraph 438): % inhibition of laminin 411 binding to hMCAM-expressing CHO cells
Experimental: Following incubation for 30-45 minutes, the cells were washed and anti-laminin conjugated to AF650 (NovusBio) was added to detect the bound laminin. The cells were run on a flow cytometer to measure the laminin binding signal.

[2] = molecular target: recombinant human laminin 411 (Biolamina) (human, UniProt Q16363 25-1823; P07942 22-1786; P11047 34-1609); assay: SPR, Biacore T200, steady state, Fc-tagged MCAM IgG1-2A captured by anti-Fc, laminin as analyte

| Binder | IC50 (read off the curve) [1] | Kd [2] |
| --- | --- | --- |
| h2107_VH2 + h2107_VL2 (antibody, V domains shown, also called h2107VH2VL2; VH2VL2) VH: QVTLKESGPVLVKPTETLTLTCTVSGFSLTSNGVSWVRQPPGKALEWIAAISSGGSTYYNSAFKSRLSISRDTSKSQVVLTMTNMDPVDTATYYCARHRPFYFDYWGQGTLVTVSS VL: DIQMTQSPSSLSASVGDRVTITCKGSQNIYKSLAWFQLKPGKVPKLLIYDANSLQTGIPSRFSGSGSGTDFTLTISSLQPEDVATYYCQQYYSGYTFGGGTKVEIK | ~0.8 µg/mL |  |
| chimeric 1749 (antibody, V domains shown) VH: DVKLVESGGDLVKPGGSLKLSCAASGFTFSSYIMSWVRQTPEKRLEWVATISSGGSSTYYPDSVKGRFTISRDNAKNTLYLQMSSLKSEDTAMYYCTRDDDYDVKVFAYWGQGTLVTVSA VL: DIVMSQSPSSLAVSAGEKVTMNCKSSRSLLNSRIRKNYLAWYQQKPGQSPKLLIYWASTRESGVPDRFTGSGSGTDFTLTISSVQAEDLAVYYCKQSYNLLTFGAGTKLELK | ~0.4 µg/mL |  |
| chimeric 2107 (antibody, V domains shown) VH: QVQLKESGPGLVQSSQTLSLTCTVSGFSLTSNGVSWVRQPPGKGLEWIAAISSGGSTYYNSAFKSRLSISRNTSKSQVLLKMNSLQTEDTGMYFCARHRPFYFDYWGQGVMVTVSS VL: DIQVTQSPSLLSASVGDRVTLNCKGSQNIYKSLAWFRLKRGEAPKLLIYDANSLQTGIPSRFSGSGSGTDFTLTITSLQPEDVATYFCQQYYSGYTFGAGTKLELK | ~0.5 µg/mL |  |
| Recombinant human Fc-tagged MCAM IgG1-2A (human MCAM domains 1 and 2, amino acids 19-242) (Fc fusion, also called human MCAM IgG1-2A; MCAM Fc domains 1 and 2; not shown: human Fc tag) PRVAGVPGEAEQPAPELVEVEVGSTALLKCGLSQSQGNLSHVDWFSVHKEKRTLIFRVRQGQGQSEPGEYEQRLSLQDRGATLALTQVTPQDERIFLCQGKRPRSQEYRIQLRVYKAPEEPNIQVNPLGIPVNSKEPEEVATCVGRNGYPIPQVIWYKNGRPLKEEKNRVHIQSSQTVESSGLYTLQSILKAQLVKEDKDAQFYCELNYRLPSGNHMKESREVT |  | 66 nM |
